Tests used:
[1] = target: T1, human EpCAM (epithelial cell adhesion/activating molecule) (human, UniProt P16422 24-314); assay: cell-based or functional assay
T1 sequence: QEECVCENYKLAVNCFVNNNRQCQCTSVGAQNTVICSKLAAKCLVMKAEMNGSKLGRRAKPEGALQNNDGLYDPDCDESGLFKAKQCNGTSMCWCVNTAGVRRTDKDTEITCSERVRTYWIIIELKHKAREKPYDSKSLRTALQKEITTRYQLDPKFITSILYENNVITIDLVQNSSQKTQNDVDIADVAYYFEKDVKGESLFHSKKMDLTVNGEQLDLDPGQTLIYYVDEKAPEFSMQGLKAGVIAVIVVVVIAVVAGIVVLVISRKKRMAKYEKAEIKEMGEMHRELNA

EGFI-Cr1 R44G = target: T2, EGFI-Cr1 R44G (human, UniProt P16422 24-63); assay: direct ELISA, coated EGFI-Cr1 fusion, 0.1 µg/ml antibody
T2 construct: not shown: the constant region of human immunoglobulin gamma 1 heavy chain (Cr1) fused at the C-terminus
T2 chain: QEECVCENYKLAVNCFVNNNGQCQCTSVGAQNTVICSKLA
Description: (§1) A direct ELISA was used for testing the reactivity of anti-EpCAM antibodies toward variant EpCAM mutants. Briefly, purified EpCAM EGF-1 fusion proteins (WT, Q24A, E25K, E26D, A35T, N37R, F39A, V40E, N41A, N42E, N43A, R44G, Q45A, Q47A or T49A) and irrelevant control (CEA-Cr1) were pre-diluted to 0.5 μg/ml in coating buffer (8.4 g NaHCO₃, 3.4 g Na₂CO₃ in 1 L H₂O, pH 9.5) and aliquoted (100 μl/well) into 96-well plates. […] Plates were then washed 3 times with PBST followed by the addition of the enzyme substrate TMB (BD Biosciences, Cat. No. 555214). […] The optical densities at 450 nm wavelength were measured on an ELISA plate reader.

EGFI-Cr1 V40E = target: T3, EGFI-Cr1 V40E (human); assay: as above
T3 construct: not shown: The fused constant region of human immunoglobulin gamma 1 heavy chain (Cr1)
T3 chain: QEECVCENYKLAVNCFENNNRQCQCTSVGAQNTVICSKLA
Description: as §1

EGFI-Cr1 E26D = target: T4, EGFI-Cr1 E26D (human, UniProt P16422 24-63); assay: as above
T4 construct: not shown: The fused constant region of human immunoglobulin gamma 1 heavy chain (Cr1)
T4 chain: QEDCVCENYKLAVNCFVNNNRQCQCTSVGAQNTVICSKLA
Description: as §1

EGFI-Cr1 A35T = target: T5, EGFI-Cr1 A35T (human, UniProt P16422 24-63); assay: as above
T5 construct: not shown: The fused constant region of human immunoglobulin gamma 1 heavy chain (Cr1)
T5 chain: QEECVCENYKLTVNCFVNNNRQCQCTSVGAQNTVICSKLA
Description: as §1

EGFI-Cr1 Q24A = target: T6, EGFI-Cr1 Q24A (human, UniProt P16422 25-63); assay: as above
T6 construct: not shown: The fused constant region of human immunoglobulin gamma 1 heavy chain (Cr1)
T6 chain: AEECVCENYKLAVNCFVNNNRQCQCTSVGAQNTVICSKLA
Description: as §1

EGFI-Cr1 N37R = target: T7, EGFI-Cr1 N37R (human); assay: as above
T7 construct: not shown: The fused constant region of human immunoglobulin gamma 1 heavy chain (Cr1)
T7 chain: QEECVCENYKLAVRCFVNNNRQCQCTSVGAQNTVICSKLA
Description: as §1

EGFI-Cr1 N42E = target: T8, EGFI-Cr1 N42E (human, UniProt P16422 24-63); assay: as above
T8 construct: not shown: the constant region of human immunoglobulin gamma 1 heavy chain (Cr1) fused at the C-terminus
T8 chain: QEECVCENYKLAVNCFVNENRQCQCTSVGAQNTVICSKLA
Description: as §1

EGFI-Cr1 N43A = target: T9, EGFI-Cr1 N43A (human, UniProt P16422 24-63); assay: as above
T9 construct: not shown: the constant region of human immunoglobulin gamma 1 heavy chain (Cr1) fused at the C-terminus
T9 chain: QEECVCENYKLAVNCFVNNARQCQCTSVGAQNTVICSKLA
Description: as §1

EGFI-Cr1 Q47A = target: T10, EGFI-Cr1 Q47A (human, UniProt P16422 24-63); assay: as above
T10 construct: not shown: the constant region of human immunoglobulin gamma 1 heavy chain (Cr1) fused at the C-terminus
T10 chain: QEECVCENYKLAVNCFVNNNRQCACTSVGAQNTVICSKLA
Description: as §1

EGFI-Cr1 Q45A = target: T11, EGFI-Cr1 Q45A (human, UniProt P16422 24-63); assay: as above
T11 construct: not shown: the constant region of human immunoglobulin gamma 1 heavy chain (Cr1) fused at the C-terminus
T11 chain: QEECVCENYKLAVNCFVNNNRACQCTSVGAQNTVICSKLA
Description: as §1

EGFI-Cr1 N41A = target: T12, EGFI-Cr1 N41A (human, UniProt P16422 24-63); assay: as above
T12 construct: not shown: The fused constant region of human immunoglobulin gamma 1 heavy chain (Cr1)
T12 chain: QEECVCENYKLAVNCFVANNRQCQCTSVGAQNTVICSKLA
Description: as §1

[2] = target: T13, EGFI-Cr1 wild type (first EGF-like repeat of human EpCAM fused to the constant region of human immunoglobulin … (human, UniProt P01857-1 99-330 = IgG part)); assay: as above
T13 construct: cDNA covered aa 1-63; Expressed in COS-7 cells; also called WT; EpCAM EGF-1 fusion protein WT
Description: as §1

EGFI-Cr1 T49A = target: T14, EGFI-Cr1 T49A (human, UniProt P16422 24-63); assay: as above
T14 construct: not shown: the constant region of human immunoglobulin gamma 1 heavy chain (Cr1) fused at the C-terminus
T14 chain: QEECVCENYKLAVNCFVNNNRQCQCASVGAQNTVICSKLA
Description: as §1

EGFI-Cr1 F39A = target: T15, EGFI-Cr1 F39A (human, UniProt P16422 24-63); assay: as above
T15 construct: not shown: The fused constant region of human immunoglobulin gamma 1 heavy chain (Cr1)
T15 chain: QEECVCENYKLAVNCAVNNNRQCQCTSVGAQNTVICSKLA
Description: as §1

EGFI-Cr1 E25K = target: T16, EGFI-Cr1 E25K (human, UniProt P16422 24-63); assay: as above
T16 construct: not shown: The fused constant region of human immunoglobulin gamma 1 heavy chain (Cr1)
T16 chain: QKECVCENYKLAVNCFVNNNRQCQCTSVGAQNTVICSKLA
Description: as §1

[3] = target: T1, human EpCAM (epithelial cell …); assay: cell-based or functional assay; remark: listed apart in the source
[4] = target: T1, human EpCAM (epithelial cell …); assay: flow cytometry, CHO/EpCAM cells, 0.1 µg/ml antibody
Description: A 300× dilution of human cell hyper-immune serum (HPS 300×) was used as binding positive control for both cell lines here. After 1 hr incubation at 4° C., cells were washed twice with 200 μl FACS buffer (1×PBS containing 1% FBS), stained with 100 μl of 1 μg/ml goat-anti-mouse IgG-PE (Southern Biotech, Cat. No. 1032-09) in FACS buffer and then incubated at 4° C. for 30 min. Cells were washed thrice with FACS buffer and analyzed by flow cytometry (BD LSR, BD Life Sciences).

% of Annexin V + PI staining (untreated background subtracted), NCI-H358, 10 µg/ml mAb, Exp1 [1]: 36% | % of Annexin V + PI staining (untreated background subtracted), NCI-H358, 10 µg/ml mAb, Exp2 [1]: 33% | % of Annexin V + PI staining (untreated background subtracted), NCI-H358, 10 µg/ml mAb, Exp3 [1]: 31% | % of Annexin V + PI staining (untreated background subtracted), NCI-H358, 10 µg/ml mAb, Exp4 [1]: 40% | % of Annexin V + PI staining (untreated background subtracted), NCI-H358, 10 µg/ml mAb, Exp5 [1]: 28% | relative binding activity (% of WT) (EGFI-Cr1 R44G): 91% | relative binding activity (% of WT) (EGFI-Cr1 V40E): 93% | relative binding activity (% of WT) (EGFI-Cr1 E26D): 94% | relative binding activity (% of WT) (EGFI-Cr1 A35T): 95% | relative binding activity (% of WT) (EGFI-Cr1 Q24A): 0% | relative binding activity (% of WT) (EGFI-Cr1 N37R): 94% | relative binding activity (% of WT) (EGFI-Cr1 N42E): 23% | relative binding activity (% of WT) (EGFI-Cr1 N43A): 96% | relative binding activity (% of WT) (EGFI-Cr1 Q47A): 93% | relative binding activity (% of WT) (EGFI-Cr1 Q45A): 89% | relative binding activity (% of WT) (EGFI-Cr1 N41A): 81% | relative binding activity (% of WT) [2]: 100% | relative binding activity (% of WT) (EGFI-Cr1 T49A): 94% | relative binding activity (% of WT) (EGFI-Cr1 F39A): 96% | relative binding activity (% of WT) (EGFI-Cr1 E25K): 1% | % Annexin V/PI-positive cells, DLD-1, 1.0 µg/ml mAb [3]: 61% | % Annexin V/PI-positive cells, DLD-1, 3.0 µg/ml mAb [3]: 67% | % Annexin V/PI-positive cells, DLD-1, 10 µg/ml mAb [3]: 72% | % Annexin V/PI-positive cells, FaDu, 1.0 µg/ml mAb [3]: 42% | % Annexin V/PI-positive cells, FaDu, 3.0 µg/ml mAb [3]: 43% | % Annexin V/PI-positive cells, FaDu, 10 µg/ml mAb [3]: 44% | % Annexin V/PI-positive cells, LNCaP, 1.0 µg/ml mAb [3]: 61% | % Annexin V/PI-positive cells, LNCaP, 3.0 µg/ml mAb [3]: 67% | % Annexin V/PI-positive cells, LNCaP, 10 µg/ml mAb [3]: 58% | % Annexin V/PI-positive cells, NCI-H520, 1.0 µg/ml mAb [3]: 24% | % Annexin V/PI-positive cells, NCI-H520, 3.0 µg/ml mAb [3]: 29% | % Annexin V/PI-positive cells, NCI-H520, 10 µg/ml mAb [3]: 34% | % Annexin V/PI-positive cells, NCI-N87, 1.0 µg/ml mAb [3]: 67% | % Annexin V/PI-positive cells, NCI-N87, 3.0 µg/ml mAb [3]: 62% | % Annexin V/PI-positive cells, NCI-N87, 10 µg/ml mAb [3]: 66% | % Annexin V/PI-positive cells, NIH:OVCAR-3, 1.0 µg/ml mAb [3]: 59% | % Annexin V/PI-positive cells, NIH:OVCAR-3, 3.0 µg/ml mAb [3]: 62% | % Annexin V/PI-positive cells, NIH:OVCAR-3, 10 µg/ml mAb [3]: 63% | % Annexin V/PI-positive cells, T-47D, 1.0 µg/ml mAb [3]: 49% | % Annexin V/PI-positive cells, T-47D, 3.0 µg/ml mAb [3]: 54% | % Annexin V/PI-positive cells, T-47D, 10 µg/ml mAb [3]: 56% | MFI [4]: 6650 MFI
B1: murine monoclonal antibody 12H8 (antibody, mouse IgG2a, V domains shown)
VH: QIQLVQSGPELKKPGETVKISCKTSGYTFTDYSMHWVNQAPGKGLKWMGWINTETGEPTYTDDFKGRFAFSLETSASTAYLQINNLKNEDTATYFCARTAVYWGQGTTLTVSS
VL: DIQMTQSPSSLSASLGERVSLTCRASQEISGSLSWLQQKPDGTIKRLIYAASTLNSGVPKRFSGRRSGSDYSLTISSLESEDFVDYYCLQYSSYPWSFGGGTKLEIKR
notes: Mouse IgG2a, kappa, from hybridoma; also called m342-12H8.3; m12H8

Source: patent US20110165161A1, “ANTI-EPCAM ANTIBODIES THAT INDUCE APOPTOSIS OF CANCER CELLS AND METHODS USING SAME” (priority 2009, published 2011)
